This is an account of results in article PMC5700991, “Cryo-EM structure of Saccharomyces cerevisiae target of rapamycin complex 2” (Nature Communications, 2017).

The term stoichiometry N denotes a count of units in the complex or per binding partner.

The chains are these.
T1: Avo1 (S. cerevisiae, UniProt Q08236 1-1176)
T1 construct: Avo1 of S. cerevisiae (ortholog of hSin1); CRIM domain (residues 647-792 in the model; aa 638-786 in the methods), PH domain (aa 1076-1176); Poorly resolved in the map; only a homology model of the CRIM domain was fitted at a low contour level; source: endogenous, S. cerevisiae cell extract (Bit61-TAP strain lacking Bit2); purified as part of TORC2 on IgG-coated dynabeads, released with TEV …
T1 sequence (looked up): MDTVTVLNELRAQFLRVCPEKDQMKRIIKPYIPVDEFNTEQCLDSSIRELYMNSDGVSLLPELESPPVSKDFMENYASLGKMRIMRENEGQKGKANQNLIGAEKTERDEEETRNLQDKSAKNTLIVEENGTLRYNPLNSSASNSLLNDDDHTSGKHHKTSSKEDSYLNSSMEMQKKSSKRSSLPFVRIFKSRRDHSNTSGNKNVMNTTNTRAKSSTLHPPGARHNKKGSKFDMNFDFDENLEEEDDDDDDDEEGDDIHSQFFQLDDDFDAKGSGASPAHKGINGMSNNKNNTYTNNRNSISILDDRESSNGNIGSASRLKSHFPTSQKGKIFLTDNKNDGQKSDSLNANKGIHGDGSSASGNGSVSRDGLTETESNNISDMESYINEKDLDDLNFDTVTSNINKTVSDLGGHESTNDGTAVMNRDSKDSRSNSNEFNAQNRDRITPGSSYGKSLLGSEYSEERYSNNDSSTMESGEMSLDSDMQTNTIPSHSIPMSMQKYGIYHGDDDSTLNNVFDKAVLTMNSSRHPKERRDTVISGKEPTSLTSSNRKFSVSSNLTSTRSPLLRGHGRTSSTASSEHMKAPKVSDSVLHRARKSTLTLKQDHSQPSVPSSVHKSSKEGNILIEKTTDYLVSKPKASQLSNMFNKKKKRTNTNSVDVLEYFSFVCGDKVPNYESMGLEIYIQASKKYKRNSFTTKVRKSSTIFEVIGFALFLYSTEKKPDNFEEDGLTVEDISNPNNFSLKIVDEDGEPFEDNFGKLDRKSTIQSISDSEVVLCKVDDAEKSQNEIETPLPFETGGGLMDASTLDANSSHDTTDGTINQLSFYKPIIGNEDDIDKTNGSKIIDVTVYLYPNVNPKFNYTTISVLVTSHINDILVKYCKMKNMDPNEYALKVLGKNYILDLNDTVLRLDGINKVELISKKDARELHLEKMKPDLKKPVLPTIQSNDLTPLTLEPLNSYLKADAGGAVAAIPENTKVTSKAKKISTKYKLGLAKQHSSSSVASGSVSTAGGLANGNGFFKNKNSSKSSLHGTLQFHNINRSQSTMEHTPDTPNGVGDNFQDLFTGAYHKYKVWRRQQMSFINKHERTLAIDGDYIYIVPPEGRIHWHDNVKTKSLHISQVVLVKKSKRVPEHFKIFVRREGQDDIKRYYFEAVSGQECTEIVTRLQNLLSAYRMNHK

T2: Avo3 (S. cerevisiae, UniProt P40061 1-1430)
T2 construct: Avo3 of S. cerevisiae (ortholog of Rictor); armadillo-like helical domain in its middle part; Only 17 individual helices are modelled; they are not tied to residue numbers in the text; source: endogenous, S. cerevisiae cell extract (Bit61-TAP strain lacking Bit2); purified as part of TORC2 on IgG-coated dynabeads, released with TEV protease
T2 sequence (looked up): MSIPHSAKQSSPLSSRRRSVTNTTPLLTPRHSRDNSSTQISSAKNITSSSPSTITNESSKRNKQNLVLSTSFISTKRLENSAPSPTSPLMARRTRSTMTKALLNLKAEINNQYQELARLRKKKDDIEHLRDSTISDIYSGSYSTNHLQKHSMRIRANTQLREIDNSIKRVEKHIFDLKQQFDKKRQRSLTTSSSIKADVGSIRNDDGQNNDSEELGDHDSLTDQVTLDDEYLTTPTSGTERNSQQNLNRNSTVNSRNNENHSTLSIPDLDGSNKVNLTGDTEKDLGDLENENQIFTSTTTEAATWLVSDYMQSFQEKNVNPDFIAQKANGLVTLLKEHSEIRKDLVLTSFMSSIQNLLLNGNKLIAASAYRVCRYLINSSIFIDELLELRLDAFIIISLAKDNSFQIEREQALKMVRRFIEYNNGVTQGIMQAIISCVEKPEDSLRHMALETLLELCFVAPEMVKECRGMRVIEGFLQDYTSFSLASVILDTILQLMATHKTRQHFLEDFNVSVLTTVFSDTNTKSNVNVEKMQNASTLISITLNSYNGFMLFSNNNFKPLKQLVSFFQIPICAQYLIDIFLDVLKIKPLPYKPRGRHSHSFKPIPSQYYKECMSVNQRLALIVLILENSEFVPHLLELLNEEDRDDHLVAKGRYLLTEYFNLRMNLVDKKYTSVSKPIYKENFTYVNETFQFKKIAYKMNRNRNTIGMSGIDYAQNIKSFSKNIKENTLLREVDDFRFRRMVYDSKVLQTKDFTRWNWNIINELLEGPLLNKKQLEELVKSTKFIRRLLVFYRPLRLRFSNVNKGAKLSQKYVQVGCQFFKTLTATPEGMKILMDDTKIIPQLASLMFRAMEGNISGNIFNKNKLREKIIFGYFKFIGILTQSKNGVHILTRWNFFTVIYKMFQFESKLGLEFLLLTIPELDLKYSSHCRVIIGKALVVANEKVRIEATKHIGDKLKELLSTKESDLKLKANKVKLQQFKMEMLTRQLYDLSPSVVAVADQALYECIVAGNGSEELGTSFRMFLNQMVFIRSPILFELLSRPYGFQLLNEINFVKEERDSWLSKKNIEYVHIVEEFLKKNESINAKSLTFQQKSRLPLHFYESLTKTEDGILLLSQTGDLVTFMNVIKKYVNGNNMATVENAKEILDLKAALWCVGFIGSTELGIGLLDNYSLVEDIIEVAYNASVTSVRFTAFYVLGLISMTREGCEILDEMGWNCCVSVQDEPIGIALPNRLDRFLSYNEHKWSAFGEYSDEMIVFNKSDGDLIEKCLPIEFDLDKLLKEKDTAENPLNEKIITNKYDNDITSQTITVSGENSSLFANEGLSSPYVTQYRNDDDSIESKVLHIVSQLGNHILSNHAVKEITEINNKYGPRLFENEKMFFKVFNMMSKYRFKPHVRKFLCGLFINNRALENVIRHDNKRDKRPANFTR

B1: Lst8 (natural protein, S. cerevisiae, UniProt P41318 1-303, looked up)
chain: MSVILVSAGYDHTIRFWEALTGVCSRTIQHSDSQVNRLEITNDKKLLATAGHQNVRLYDIRTTNPNPVASFEGHRGNVTSVSFQQDNRWMVTSSEDGTIKVWDVRSPSIPRNYKHNAPVNEVVIHPNQGELISCDRDGNIRIWDLGENQCTHQLTPEDDTSLQSLSMASDGSMLAAANTKGNCYVWEMPNHTDASHLKPVTKFRAHSTYITRILLSSDVKHLATCSADHTARVWSIDDDFKLETTLDGHQRWVWDCAFSADSAYLVTASSDHYVRLWDLSTREIVRQYGGHHKGAVCVALNDV
notes: Lst8 of S. cerevisiae, composed entirely of WD40 repeats (beta propeller); Two copies stand in the TORC2 complex; source: endogenous, S. cerevisiae cell extract (Bit61-TAP strain lacking Bit2); purified as part of TORC2 on IgG-coated dynabeads, released with TEV protease
B2: Avo2 (natural protein, S. cerevisiae, UniProt Q04749 1-426, looked up)
chain: MLKEPSVRLREAIIEGNLLIVKRLLRRNPDLLTNIDSENGWSSLHYASYHGRYLICVYLIQLGHDKHELIKTFKGNTCVHLALMKGHEQTLHLLLQQFPRFINHRGENGRAPIHIACMNDYYQCLSLLIGVGADLWVMDTNGDTPLHVCLEYGSISCMKMLLNEGEVSLDDNVRDKGNWKPIDVAQTFEVGNIYSKVLKEVKKKGPPLGAGKKPSSFRTPILNAKATFEDGPSPVLSMNSPYSLYSNNSPLPVLPRRISTHTTSGNGGNRRSSITNPVFNPRKPTLSTDSFSSSSNSSSRLRVNSINVKTPVGVSPKKELVSESVRHSATPTSPHNNIALINRYLLPNKSNDNVRGDSQTATINDDGGGGNGGDATIGMGLRKDPDDENENKYKIKVNNGEPRRRVSLLNIPISKLRNSNNTRAED
notes: Avo2 of S. cerevisiae; N-terminal five ankyrin repeats (residues 4-171; modelled aa 4-163); Only the ankyrin repeats are modelled in the map; source: endogenous, S. cerevisiae cell extract (Bit61-TAP strain lacking Bit2); purified as part of TORC2 on IgG-coated dynabeads, released with TEV protease
B3: Bit61-TAP (natural protein, S. cerevisiae, UniProt P47041 1-543, looked up)
chain: MTAEDILLRERTSTTTQRPVNSEQYLNVQLATAPVKNFQTTSEISRQTLVDTSNDDVYSIKNLKGSRNPISPSVSNVGFQSIFHTVDHPRSKVSVASNHSLRSNDNASAATSKSGSSQIGESHSVDTVECSNNLSKKLSSDAISITQKSLHSTPSGRYMKGKASGFFNRRNRAHTTISSDPASFLTDSSTLHNSSHSFRNVIKNFFQNKSHRHIGQDAIEPAIPNSLSKFLHSSYGRHKSPSQFIHTNAGQLVDSGTSVYSLNVNPSGVNPNTIVEDPLSGTDPASPNPVSMLHDLLRNLPSLEANYKHFNSQELTTLTNNIWNIFCSNVAELFRTQRIWKLRAKIENFNEVLEFYCILKTDPRVTHSGMNRIISDLKEFLVSSLYNLENQIVFNYSNEDTINNALKRLGVIWRIFYQEVYYDLAAVLLPLDQSIREDGNSTVLKSGNESRTHINGNYSIGFLLLMCFRDSIVLPCYENFVNSNDGISKSFQLYIFNQEEESNVTETDKLTLLQCFGILSTIQSNDRNQRIIEELLAGIRMSI
notes: Bit61 of S. cerevisiae (ortholog of Protor), subunit of TORC2; The chain was captured by the protein A part of the TAP tag and set free with TEV protease; also called TAP-tagged Bit61; source: S. cerevisiae Bit61-TAP expressing strain lacking Bit2, cell extract; captured on IgG-coated dynabeads, released with TEV protease

Common to all, as to assay: cryo-EM structure; TORC2 purified from S. cerevisiae extract by protein-A affinity purification of Bit61-TAP (IgG-coated dynabeads; 50 mM HEPES pH 7.5, 0.2 mM CHAPS, 300 mM KCl, 0.5 mM DTT wash; TEV release); single-particle cryo-EM, C2 symmetry, 7.9 Å overall; homology models fitted
The target in assay [1] is Tor2 (S. cerevisiae) (UniProt P32600).
Assay [2] deals with T3, Tor2 (S. cerevisiae, UniProt P32600 1-2474).
T3 construct: Tor2, Ser/Thr protein kinase of S. cerevisiae TORC2; HEAT repeats (spiral, bridge), FAT, FRB, kinase and FATC domains; Two copies stand in the TORC2 complex; The model in the map is a homology model built on the K. marxianus Tor-Lst8 structure; also called Sc Tor2; S. cerevisiae Tor2; source: endogenous, S. cerevisiae cell extract (Bit61-TAP strain lacking Bit2); purified as part of TORC2 on …
T3 sequence (P32600 whole entry, the tested form may be a part): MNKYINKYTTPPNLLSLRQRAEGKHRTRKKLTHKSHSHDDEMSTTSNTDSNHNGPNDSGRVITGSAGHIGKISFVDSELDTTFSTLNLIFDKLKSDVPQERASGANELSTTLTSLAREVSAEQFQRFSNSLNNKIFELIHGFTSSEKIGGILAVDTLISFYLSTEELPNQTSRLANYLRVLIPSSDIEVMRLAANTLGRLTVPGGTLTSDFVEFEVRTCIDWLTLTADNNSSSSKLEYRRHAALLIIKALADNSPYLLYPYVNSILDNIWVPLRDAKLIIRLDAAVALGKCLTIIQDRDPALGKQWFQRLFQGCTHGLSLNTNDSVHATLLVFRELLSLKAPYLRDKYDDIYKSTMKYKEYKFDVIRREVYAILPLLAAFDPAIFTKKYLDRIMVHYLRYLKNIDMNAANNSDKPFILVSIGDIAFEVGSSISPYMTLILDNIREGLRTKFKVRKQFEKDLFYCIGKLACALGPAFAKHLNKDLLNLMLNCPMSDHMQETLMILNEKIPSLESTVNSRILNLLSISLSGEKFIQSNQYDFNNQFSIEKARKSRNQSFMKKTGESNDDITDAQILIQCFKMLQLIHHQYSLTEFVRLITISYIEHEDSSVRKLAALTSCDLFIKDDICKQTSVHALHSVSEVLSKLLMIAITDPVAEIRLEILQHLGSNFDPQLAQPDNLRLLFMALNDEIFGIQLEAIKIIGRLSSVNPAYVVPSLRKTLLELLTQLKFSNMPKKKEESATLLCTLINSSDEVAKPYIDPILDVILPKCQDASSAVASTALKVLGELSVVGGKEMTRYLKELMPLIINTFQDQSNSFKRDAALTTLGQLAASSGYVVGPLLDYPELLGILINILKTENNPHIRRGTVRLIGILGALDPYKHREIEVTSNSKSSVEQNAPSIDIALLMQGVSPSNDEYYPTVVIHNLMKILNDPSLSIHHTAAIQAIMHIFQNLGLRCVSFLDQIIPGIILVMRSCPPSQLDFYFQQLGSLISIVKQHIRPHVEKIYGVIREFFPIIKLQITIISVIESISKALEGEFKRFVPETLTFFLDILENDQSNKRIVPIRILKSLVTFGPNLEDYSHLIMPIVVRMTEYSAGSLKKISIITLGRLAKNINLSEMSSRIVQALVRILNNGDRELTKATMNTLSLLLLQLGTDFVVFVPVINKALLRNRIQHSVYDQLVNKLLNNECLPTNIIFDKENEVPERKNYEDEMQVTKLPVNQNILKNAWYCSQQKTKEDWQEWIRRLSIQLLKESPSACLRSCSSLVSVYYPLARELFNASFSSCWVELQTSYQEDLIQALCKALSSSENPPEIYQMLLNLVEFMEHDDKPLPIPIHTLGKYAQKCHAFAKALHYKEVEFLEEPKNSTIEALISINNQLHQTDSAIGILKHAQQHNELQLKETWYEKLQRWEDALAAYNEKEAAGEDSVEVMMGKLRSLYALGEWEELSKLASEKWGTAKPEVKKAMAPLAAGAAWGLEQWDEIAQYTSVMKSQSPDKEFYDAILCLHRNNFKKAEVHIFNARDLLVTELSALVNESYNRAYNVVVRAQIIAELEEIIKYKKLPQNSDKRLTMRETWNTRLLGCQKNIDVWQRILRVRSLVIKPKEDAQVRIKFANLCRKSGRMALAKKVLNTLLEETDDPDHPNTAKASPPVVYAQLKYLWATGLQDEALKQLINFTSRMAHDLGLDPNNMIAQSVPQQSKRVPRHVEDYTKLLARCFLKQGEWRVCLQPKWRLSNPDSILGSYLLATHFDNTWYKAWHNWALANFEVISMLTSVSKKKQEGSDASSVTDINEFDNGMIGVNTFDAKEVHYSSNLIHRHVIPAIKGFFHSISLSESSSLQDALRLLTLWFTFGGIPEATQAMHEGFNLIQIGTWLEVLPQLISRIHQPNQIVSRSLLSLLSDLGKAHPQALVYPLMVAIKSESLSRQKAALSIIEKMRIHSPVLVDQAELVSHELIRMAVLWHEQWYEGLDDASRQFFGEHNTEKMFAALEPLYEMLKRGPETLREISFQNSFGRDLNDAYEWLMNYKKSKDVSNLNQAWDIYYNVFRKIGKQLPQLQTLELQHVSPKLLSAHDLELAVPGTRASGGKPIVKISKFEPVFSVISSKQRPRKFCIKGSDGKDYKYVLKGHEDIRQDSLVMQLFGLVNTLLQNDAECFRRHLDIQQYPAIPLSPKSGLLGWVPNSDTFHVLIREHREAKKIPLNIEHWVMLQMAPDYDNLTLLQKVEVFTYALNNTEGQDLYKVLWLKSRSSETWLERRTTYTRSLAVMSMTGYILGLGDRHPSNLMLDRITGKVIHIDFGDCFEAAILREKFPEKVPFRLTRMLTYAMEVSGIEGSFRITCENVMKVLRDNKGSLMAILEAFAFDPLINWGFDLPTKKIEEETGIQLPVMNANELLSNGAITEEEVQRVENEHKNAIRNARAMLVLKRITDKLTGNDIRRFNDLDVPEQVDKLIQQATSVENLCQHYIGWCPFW
Particulars: both partners purified.

Assay [3] concerns the target T1, Avo1. Particulars: both partners purified.
The target of assay [4] is B3. Conditions: both partners purified.
Assay [5] deals with T2, Avo3. Conditions: both partners purified.

Tor2, P32600 1-2474 returned a stoichiometry N in assay [1] of 2.

Regarding B1, the binding result in assay [2], in assay [3] and in assay [4] was “binds” throughout.

Take B2: the binding result in assay [2] and in assay [4] was “binds” throughout.

Take B3: the binding result in assay [2], in assay [3] and in assay [5] was “binds” each time.
